We go through 14 molecules from patent US11008403 (dated 2021).

One assay concerns the target T1, cyno TfR ECD (cynomolgus).
T1 chain: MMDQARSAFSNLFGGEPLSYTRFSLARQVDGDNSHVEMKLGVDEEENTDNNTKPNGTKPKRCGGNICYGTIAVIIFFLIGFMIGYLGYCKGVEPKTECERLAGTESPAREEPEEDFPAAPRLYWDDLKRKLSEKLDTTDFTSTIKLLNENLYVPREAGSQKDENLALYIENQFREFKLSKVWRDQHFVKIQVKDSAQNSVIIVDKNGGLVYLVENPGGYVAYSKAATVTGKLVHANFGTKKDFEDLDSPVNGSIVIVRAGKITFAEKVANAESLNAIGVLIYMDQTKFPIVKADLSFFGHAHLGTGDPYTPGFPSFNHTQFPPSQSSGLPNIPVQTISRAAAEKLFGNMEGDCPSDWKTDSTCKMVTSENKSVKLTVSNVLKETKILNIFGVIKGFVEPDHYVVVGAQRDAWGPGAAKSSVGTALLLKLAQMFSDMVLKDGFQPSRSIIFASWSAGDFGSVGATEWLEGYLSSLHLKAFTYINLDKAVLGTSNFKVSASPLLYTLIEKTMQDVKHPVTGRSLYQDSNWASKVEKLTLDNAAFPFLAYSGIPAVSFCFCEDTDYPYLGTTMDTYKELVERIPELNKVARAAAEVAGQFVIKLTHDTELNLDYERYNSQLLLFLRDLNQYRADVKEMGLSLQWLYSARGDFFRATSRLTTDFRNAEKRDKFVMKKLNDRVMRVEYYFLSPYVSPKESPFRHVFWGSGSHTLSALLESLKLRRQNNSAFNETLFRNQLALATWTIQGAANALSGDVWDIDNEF
In words: ELISA. For orientation: ELISA stands for enzyme-linked immunosorbent assay.

The next assay has as its target human TfR ECD (human). Description: ELISA.

A word on the EC50: it is the concentration needed to bring the measured effect to its halfway point.

Chain of human TfR ECD (human) (chain, as listed by the source): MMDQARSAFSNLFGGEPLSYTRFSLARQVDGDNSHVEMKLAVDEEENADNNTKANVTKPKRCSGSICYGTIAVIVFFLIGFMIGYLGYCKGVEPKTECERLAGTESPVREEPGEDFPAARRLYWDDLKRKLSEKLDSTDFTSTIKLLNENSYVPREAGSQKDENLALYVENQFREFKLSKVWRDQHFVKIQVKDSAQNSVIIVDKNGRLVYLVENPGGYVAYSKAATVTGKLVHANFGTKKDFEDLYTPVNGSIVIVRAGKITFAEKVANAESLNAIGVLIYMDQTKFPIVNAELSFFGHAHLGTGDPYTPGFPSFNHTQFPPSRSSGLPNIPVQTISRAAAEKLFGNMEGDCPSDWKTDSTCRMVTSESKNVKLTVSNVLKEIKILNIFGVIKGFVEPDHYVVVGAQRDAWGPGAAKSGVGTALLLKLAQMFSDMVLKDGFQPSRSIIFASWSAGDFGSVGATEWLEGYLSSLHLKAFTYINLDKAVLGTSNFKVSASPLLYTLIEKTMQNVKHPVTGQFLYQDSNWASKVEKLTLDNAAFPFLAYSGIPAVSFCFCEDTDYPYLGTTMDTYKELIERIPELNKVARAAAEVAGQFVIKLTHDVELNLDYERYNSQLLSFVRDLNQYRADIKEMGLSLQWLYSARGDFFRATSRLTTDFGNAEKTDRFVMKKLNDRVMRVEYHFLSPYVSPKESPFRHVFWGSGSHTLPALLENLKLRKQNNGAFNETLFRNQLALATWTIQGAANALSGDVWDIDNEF

B1: hu15G11.v5 HC Y27A (antibody, V domains shown)
VH: EVQLVQSGAEVKKPGASVKVSCKASGATFTSYWMHWVRQAPGQRLEWIGEINPTNGRTNYIEKFKSRATLTVDKSASTAYMELSSLRSEDTAVYYCARGTRAYHYWGQGTMVTVSS
VL: DIQMTQSPSSLSASVGDRVTITCRASDNLYSNLAWYQQKPGKSPKLLVYDATNLADGVPSRFSGSGSGTDYTLTISSLQPEDFATYYCQHFWGTPLTFGQGTKVEIK
As to B1, the results for the EC50 with cyno TfR ECD and with human TfR ECD were 1470 ng/mL and 21.1 ng/mL, respectively.

B2: hu15G11.v5 LC N32A (antibody, V domains shown)
VH: EVQLVQSGAEVKKPGASVKVSCKASGYTFTSYWMHWVRQAPGQRLEWIGEINPTNGRTNYIEKFKSRATLTVDKSASTAYMELSSLRSEDTAVYYCARGTRAYHYWGQGTMVTVSS
VL: DIQMTQSPSSLSASVGDRVTITCRASDNLYSALAWYQQKPGKSPKLLVYDATNLADGVPSRFSGSGSGTDYTLTISSLQPEDFATYYCQHFWGTPLTFGQGTKVEIK
Consider B2, for which the EC50 with cyno TfR ECD came to 4 ng/mL; with human TfR ECD, 1.6 ng/mL.

B3: hu15G11.v5 HC M34A (antibody, V domains shown)
VH: EVQLVQSGAEVKKPGASVKVSCKASGYTFTSYWAHWVRQAPGQRLEWIGEINPTNGRTNYIEKFKSRATLTVDKSASTAYMELSSLRSEDTAVYYCARGTRAYHYWGQGTMVTVSS
VL: DIQMTQSPSSLSASVGDRVTITCRASDNLYSNLAWYQQKPGKSPKLLVYDATNLADGVPSRFSGSGSGTDYTLTISSLQPEDFATYYCQHFWGTPLTFGQGTKVEIK
On to B3, for which the EC50 with cyno TfR ECD was found to be 1.1 ng/mL; with human TfR ECD, 0.4 ng/mL.

B4: hu15G11.v5 HC T53A (antibody, V domains shown)
VH: EVQLVQSGAEVKKPGASVKVSCKASGYTFTSYWMHWVRQAPGQRLEWIGEINPANGRTNYIEKFKSRATLTVDKSASTAYMELSSLRSEDTAVYYCARGTRAYHYWGQGTMVTVSS
VL: DIQMTQSPSSLSASVGDRVTITCRASDNLYSNLAWYQQKPGKSPKLLVYDATNLADGVPSRFSGSGSGTDYTLTISSLQPEDFATYYCQHFWGTPLTFGQGTKVEIK
With B4, the figures for the EC50 with cyno TfR ECD and in the assay with human TfR ECD were 0.7 ng/mL and 0.3 ng/mL, respectively.

B5: hu15G11.v5 HC N52A (antibody, V domains shown)
VH: EVQLVQSGAEVKKPGASVKVSCKASGYTFTSYWMHWVRQAPGQRLEWIGEIAPTNGRTNYIEKFKSRATLTVDKSASTAYMELSSLRSEDTAVYYCARGTRAYHYWGQGTMVTVSS
VL: DIQMTQSPSSLSASVGDRVTITCRASDNLYSNLAWYQQKPGKSPKLLVYDATNLADGVPSRFSGSGSGTDYTLTISSLQPEDFATYYCQHFWGTPLTFGQGTKVEIK
B5: the EC50 with cyno TfR ECD stood at 0.9 ng/mL; in the assay with human TfR ECD it was 0.3 ng/mL.

B6: hu15G11.v5 LC L29A (antibody, V domains shown)
VH: EVQLVQSGAEVKKPGASVKVSCKASGYTFTSYWMHWVRQAPGQRLEWIGEINPTNGRTNYIEKFKSRATLTVDKSASTAYMELSSLRSEDTAVYYCARGTRAYHYWGQGTMVTVSS
VL: DIQMTQSPSSLSASVGDRVTITCRASDNAYSNLAWYQQKPGKSPKLLVYDATNLADGVPSRFSGSGSGTDYTLTISSLQPEDFATYYCQHFWGTPLTFGQGTKVEIK
As for B6, the EC50 was found to be 0.9 ng/mL with cyno TfR ECD and 0.3 ng/mL in the assay with human TfR ECD.

B7: hu15G11.v5 HC W33A (antibody, V domains shown)
VH: EVQLVQSGAEVKKPGASVKVSCKASGYTFTSYAMHWVRQAPGQRLEWIGEINPTNGRTNYIEKFKSRATLTVDKSASTAYMELSSLRSEDTAVYYCARGTRAYHYWGQGTMVTVSS
VL: DIQMTQSPSSLSASVGDRVTITCRASDNLYSNLAWYQQKPGKSPKLLVYDATNLADGVPSRFSGSGSGTDYTLTISSLQPEDFATYYCQHFWGTPLTFGQGTKVEIK
Turning to B7, the results for the EC50 with cyno TfR ECD and in the assay with human TfR ECD were 362 ng/mL and 59.6 ng/mL, respectively.

B8: hu15G11.v5 HC S31A (antibody, V domains shown)
VH: EVQLVQSGAEVKKPGASVKVSCKASGYTFTAYWMHWVRQAPGQRLEWIGEINPTNGRTNYIEKFKSRATLTVDKSASTAYMELSSLRSEDTAVYYCARGTRAYHYWGQGTMVTVSS
VL: DIQMTQSPSSLSASVGDRVTITCRASDNLYSNLAWYQQKPGKSPKLLVYDATNLADGVPSRFSGSGSGTDYTLTISSLQPEDFATYYCQHFWGTPLTFGQGTKVEIK
As for B8, the figures for the EC50 with cyno TfR ECD and with human TfR ECD were 0.1 ng/mL and 0.05 ng/mL, respectively.

B9: hu15G11.v5 HC T30A (antibody, V domains shown)
VH: EVQLVQSGAEVKKPGASVKVSCKASGYTFASYWMHWVRQAPGQRLEWIGEINPTNGRTNYIEKFKSRATLTVDKSASTAYMELSSLRSEDTAVYYCARGTRAYHYWGQGTMVTVSS
VL: DIQMTQSPSSLSASVGDRVTITCRASDNLYSNLAWYQQKPGKSPKLLVYDATNLADGVPSRFSGSGSGTDYTLTISSLQPEDFATYYCQHFWGTPLTFGQGTKVEIK
On to B9, for which the EC50 with cyno TfR ECD was 0.9 ng/mL; with human TfR ECD, 0.4 ng/mL.

B10: hu15G11.v5 HC Y32A (antibody, V domains shown)
VH: EVQLVQSGAEVKKPGASVKVSCKASGYTFTSAWMHWVRQAPGQRLEWIGEINPTNGRTNYIEKFKSRATLTVDKSASTAYMELSSLRSEDTAVYYCARGTRAYHYWGQGTMVTVSS
VL: DIQMTQSPSSLSASVGDRVTITCRASDNLYSNLAWYQQKPGKSPKLLVYDATNLADGVPSRFSGSGSGTDYTLTISSLQPEDFATYYCQHFWGTPLTFGQGTKVEIK
B10: the EC50 with cyno TfR ECD amounted to 1.4 ng/mL; with human TfR ECD, 0.4 ng/mL.

B11: hu15G11.v5 LC S31A (antibody, V domains shown)
VH: EVQLVQSGAEVKKPGASVKVSCKASGYTFTSYWMHWVRQAPGQRLEWIGEINPTNGRTNYIEKFKSRATLTVDKSASTAYMELSSLRSEDTAVYYCARGTRAYHYWGQGTMVTVSS
VL: DIQMTQSPSSLSASVGDRVTITCRASDNLYANLAWYQQKPGKSPKLLVYDATNLADGVPSRFSGSGSGTDYTLTISSLQPEDFATYYCQHFWGTPLTFGQGTKVEIK
In the case of B11, the concentration giving a half-maximal response (EC50) worked out at 0.7 ng/mL with cyno TfR ECD and 0.3 ng/mL with human TfR ECD.

B12: hu15G11.v5 LC L33A (antibody, V domains shown)
VH: EVQLVQSGAEVKKPGASVKVSCKASGYTFTSYWMHWVRQAPGQRLEWIGEINPTNGRTNYIEKFKSRATLTVDKSASTAYMELSSLRSEDTAVYYCARGTRAYHYWGQGTMVTVSS
VL: DIQMTQSPSSLSASVGDRVTITCRASDNLYSNAAWYQQKPGKSPKLLVYDATNLADGVPSRFSGSGSGTDYTLTISSLQPEDFATYYCQHFWGTPLTFGQGTKVEIK
Turning to B12, the values for the EC50 with cyno TfR ECD and in the assay with human TfR ECD were 0.1 ng/mL and 0.05 ng/mL, respectively.

B13: hu15G11.v5 LC T52A (antibody, V domains shown)
VH: EVQLVQSGAEVKKPGASVKVSCKASGYTFTSYWMHWVRQAPGQRLEWIGEINPTNGRTNYIEKFKSRATLTVDKSASTAYMELSSLRSEDTAVYYCARGTRAYHYWGQGTMVTVSS
VL: DIQMTQSPSSLSASVGDRVTITCRASDNLYSNLAWYQQKPGKSPKLLVYDAANLADGVPSRFSGSGSGTDYTLTISSLQPEDFATYYCQHFWGTPLTFGQGTKVEIK
For B13, the EC50 with cyno TfR ECD worked out at 0.3 ng/mL; in the assay with human TfR ECD, 0.2 ng/mL.

B14: hu15G11.v5 LC D56A (antibody, V domains shown)
VH: EVQLVQSGAEVKKPGASVKVSCKASGYTFTSYWMHWVRQAPGQRLEWIGEINPTNGRTNYIEKFKSRATLTVDKSASTAYMELSSLRSEDTAVYYCARGTRAYHYWGQGTMVTVSS
VL: DIQMTQSPSSLSASVGDRVTITCRASDNLYSNLAWYQQKPGKSPKLLVYDATNLAAGVPSRFSGSGSGTDYTLTISSLQPEDFATYYCQHFWGTPLTFGQGTKVEIK
B14: the EC50 turned out to be 0.5 ng/mL in the assay with cyno TfR ECD and 0.3 ng/mL in the assay with human TfR ECD.
